Patent US11739132B2, “Separation moieties and methods of use thereof” (Werewolf Therapeutics, Inc., priority 2019, dated 2023)

T1: FAPα (Homo sapiens, UniProt Q12884)
T1 construct: purchased R&D Systems (Bio-techne) 930-ADB-010
T1 sequence (Q12884 1-760): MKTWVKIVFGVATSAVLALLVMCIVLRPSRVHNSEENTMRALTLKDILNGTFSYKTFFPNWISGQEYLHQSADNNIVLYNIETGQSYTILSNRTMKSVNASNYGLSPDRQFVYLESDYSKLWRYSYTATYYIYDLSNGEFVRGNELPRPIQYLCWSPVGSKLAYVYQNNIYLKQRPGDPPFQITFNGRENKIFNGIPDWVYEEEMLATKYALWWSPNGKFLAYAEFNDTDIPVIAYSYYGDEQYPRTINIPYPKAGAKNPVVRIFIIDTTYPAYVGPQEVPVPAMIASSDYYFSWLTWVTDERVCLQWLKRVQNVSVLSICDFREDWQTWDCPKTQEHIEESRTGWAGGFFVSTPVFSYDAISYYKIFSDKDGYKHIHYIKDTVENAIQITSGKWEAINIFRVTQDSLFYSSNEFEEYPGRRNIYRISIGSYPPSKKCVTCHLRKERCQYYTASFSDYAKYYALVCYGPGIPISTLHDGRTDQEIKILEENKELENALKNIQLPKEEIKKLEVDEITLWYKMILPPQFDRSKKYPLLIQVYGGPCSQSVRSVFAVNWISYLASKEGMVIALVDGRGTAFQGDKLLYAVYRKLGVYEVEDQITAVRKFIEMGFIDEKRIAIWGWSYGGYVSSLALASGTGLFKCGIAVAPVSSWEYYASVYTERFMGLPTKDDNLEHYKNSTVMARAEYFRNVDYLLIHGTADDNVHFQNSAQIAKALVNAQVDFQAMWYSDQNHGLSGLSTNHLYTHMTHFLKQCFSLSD


Assays:
[1] = molecular target: T2, MMP9 (Homo sapiens, UniProt P14780); test: 30-mer tandem linker library MSP-MS, MMP9; assay type: biochemical
T2 construct: purchased R&D Systems (Bio-techne) 911-MP-010
Protocol: (§1) Protease specificity screening was performed using Multiplexed Substrate Profiling by Mass Spectrometry (MSP-MS), the method described in, e.g. O'Donoghue A. J. et al., Nat Methods., 2012; 9(11): 1095-1100. This method employs a physico-chemically diverse peptide library as substrates for proteases, and reactions are monitored over time with mass spectrometric detection of cleaved products. The resulting cleavages are assessed for specific cleavage in the enzyme-treated sample by comparison with results from a no-enzyme control incubation.
(§2) Enzymes were activated and assayed following the manufacturer's recommendations.
MMP9 was activated by incubation with 1 mM p-amino phenyl mercuric acetate (prepared from a stock at 100 mM in DMSO) for 24h at 37° C. in activation buffer: 50 mM TRIS HCl (pH 7.5), 10 mM CaCl2, 150 mM NaCl, 0.05% Brij35. The final enzyme concentration used for fluorescence assays was 2.5 nM.
To analyze the catalytic efficiency of candidate tandem linker designs, a tailored library approach using MSP-MS was applied. […] For quantitative comparisons, kinetic analysis was performed over a time course, and results are reported either as a catalytic efficiency kcat/KM for well-behaved first-order kinetics, or as observed rates as kobs for more complex kinetic behavior. […]

[2] = molecular target: T1, FAPα; test: 30-mer tandem linker library MSP-MS, FAPα; assay type: biochemical
Protocol: as §1, §2
FAPα activity was tested with fluorescence detection using a generic Z-GP-AMC substrate. For FRET assays, the final enzyme concentration was 5 nM and the buffer was 50 mM TRIS HCl, 1 M NaCl, 1 mg/mL BSA, pH 7.5.
To analyze the catalytic efficiency of candidate tandem linker designs, a tailored library approach using MSP-MS was applied. For the tailored library, a set of nineteen synthetic peptides, 30 amino acids in length (30-mers), were designed to test whether sequence context affects the efficiency of cleavage. Peptides were assayed in a multiplex format together as a substrate library with individual recombinant enzymes, using MSP-MS. For quantitative comparisons, kinetic analysis was performed over a time course, and results are reported either as a catalytic efficiency kcat/KM for well-behaved first-order kinetics, or as observed rates as kobs for more complex kinetic behavior.
(§3) Catalytic efficiency (kcat/KM) estimations were used to rank the top cleaved substrates in the MSP-MS reaction. Peptides were quantified by mass spectrometric label-free quantitation from the MS1 precursor ion peak areas for each peptide. Enzyme progress curves were modeled from six-time point measurements in GraphPad Prism. Data were fitted using non-linear least squares fitting to the first order kinetics equation:
(§4) [formula] where Y=percent product formation or substrate consumption, and t=time. The observed rate is a function of the enzyme concentration [E0], and an observed catalytic efficiency (kcat/KM) in units M^−1s^−1

[3] = molecular target: T3, Thrombin (Homo sapiens, UniProt P00734); test: 30-mer library counter-screening MSP-MS, Thrombin; assay type: biochemical
T3 construct: purchased R&D Systems (Bio-techne) 2196-SE-200
Protocol: as §1, §2
Thrombin was activated following the manufacturer's recommended conditions by pre-incubation with the enzyme with thermolysin for 15 min, and then the thermolysin was quenched with 1,10 phenanthroline treatment. Activated thrombin was assayed at 1.2 nM in activation buffer: 50 mM TRIS HCl, 10 mM CaCl2, 150 mM NaCl, 0.05% (w/v) Brij-35, pH 7.5.
Counter-screening was performed against the enzymes Thrombin, Factor Xa and Hepsin using this library as well, and for calibration of activity, a positive-control peptide bearing favorable motifs for these enzymes was also designed (ALU30-19).
as §3, §4
Counter-screening with Thrombin, Factor Xa and Hepsin was also performed following the same analysis. The library peptide Alu30-19 was designed to include authentic sites for each enzyme, for comparison of overall cleavage efficiency as well as cleavage site specificity within each motif. The substrate designed for Factor Xa has the motif FNPR|TFGS (SEQ ID NO: 248), derived from the Factor Xa cleavage site in Thrombin. The substrate motif for Thrombin was FPR|, a common tool substrate motif. The substrate motif for hepsin was RKRR|GSRG (SEQ ID NO: 249) from filaggrin.

[4] = system: MC38 tumor cells; test: MC38 tumor model, IFNα and IL-12 fusion proteins (Example 27C); assay type: in vivo, C57BL/6 mice; conditions: ACP31 33-330 μg, ACP11 17.5-525 μg, ACP04 2 and 10 μg
Protocol: The MC38 cell line, a rapidly growing colon adenocarcinoma cell line that expresses MMP9 in vitro, was used. Using this tumor model, the ability of fusion proteins to affect tumor growth was examined.
Mice were anaesthetized with isoflurane for implant of cells to reduce the ulcerations. 308 CR female C57BL/6 mice were set up with 5×10^5 MC38 tumor cells in 0% Matrigel sc in flank. Cell Injection Volume was 0.1 mL/mouse. Mouse age at start date was 8 to 12 weeks. Pair matches were performed when tumors reach an average size of 100-150 mm^3 and begin treatment. Body weights were taken at initiation and then biweekly to the end. Caliper measurements were taken biweekly to the end. Any adverse reactions were to be reported immediately. […] Within a group with >20% weight loss, individuals hitting the individual body weight loss endpoint were euthanized. If the group treatment related body weight loss is recovered to within 10% of the original weights, dosing resumed at a lower dose or less frequent dosing schedule. Exceptions to non-treatment body weight % recovery were allowed on a case-by-case basis. […] Animals were monitored individually. […]
No compounds in salt form were used. […] The amount needed per week was calculated, aliquoted accordingly, and stored at −20 C. […]
For ACP11, ACP31, ACP131, the amount needed per week was calculated, aliquoted accordingly, and stored at −20 C. […]

T2 sequence (P14780 107-707 limits assumed): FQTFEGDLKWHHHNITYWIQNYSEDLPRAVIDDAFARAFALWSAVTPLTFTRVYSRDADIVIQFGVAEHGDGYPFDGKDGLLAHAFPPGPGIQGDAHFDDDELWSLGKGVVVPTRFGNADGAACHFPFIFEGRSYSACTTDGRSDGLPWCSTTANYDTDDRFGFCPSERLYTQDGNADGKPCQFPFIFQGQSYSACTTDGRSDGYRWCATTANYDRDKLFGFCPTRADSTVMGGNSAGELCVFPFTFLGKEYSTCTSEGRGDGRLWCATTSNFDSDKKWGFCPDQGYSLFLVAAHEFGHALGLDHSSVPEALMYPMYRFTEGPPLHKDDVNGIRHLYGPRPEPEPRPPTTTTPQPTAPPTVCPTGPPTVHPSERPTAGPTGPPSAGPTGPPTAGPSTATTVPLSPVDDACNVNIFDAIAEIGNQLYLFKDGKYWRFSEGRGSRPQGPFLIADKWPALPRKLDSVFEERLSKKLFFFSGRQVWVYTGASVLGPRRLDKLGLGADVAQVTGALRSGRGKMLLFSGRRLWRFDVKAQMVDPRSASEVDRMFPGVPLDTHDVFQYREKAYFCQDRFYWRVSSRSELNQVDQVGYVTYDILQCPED

| Molecule | Relative efficiency of 30-mer substrate degradation/cleavage by MMP9 [1] | Relative efficiency of 30-mer peptide degradation by FAPα [2] | Relative efficiency of 30-mer peptide cleavage by thrombin [3] | Tumor volume over time [4] |
| --- | --- | --- | --- | --- |
| RGSGGGPAGLYAQGSGGGPAGLYAQGGSGK [Alu30-2] | more efficient than the Alu30-1 peptide | efficiently cleaved | less susceptible to thrombin | – |
| ACP04: human p40-murine p35-6xHis (protein) IWELKKDVYVVELDWYPDAPGEMVVLTCDTPEEDGITWTLDQSSEVLGSGKTLTIQVKEFGDAGQYTCHKGGEVLSHSLLLLHKKEDGIWSTDILKDQKEPKNKTFLRCEAKNYSGRFTCWWLTTISTDLTFSVKSSRGSSDPQGVTCGAATLSAERVRGDNKEYEYSVECQEDSACPAAEESLPIEVMVDAVHKLKYENYTSSFFIRDIIKPDPPKNLQLKPLKNSRQVEVSWEYPDTWSTPHSYFSLTFCVQVQGKSKREKKDRVFTDKTSATVICRKNASISVRAQDRYYSSSWSEWASVPCSGGGGSGGGGSGGGGSRVIPVSGPARCLSQSRNLLKTTDDMVKTAREKLKHYSCTAEDIDHEDITRDQTSTLKTCLPLELHKNESCLATRETSSTTRGSCLPPQKTSLMMTLCLGSIYEDLKMYQTEFQAINAALQNHNHQQIILDKGMLVAIDELMQSLNHNGETLRQKPPVGEADPYRVKMKLCILLHAFSTRVVTINRVMGYLSSAHHHHHH | – | – | – | tumor volume decreasing over time in a dose-dependent manner |
